{"source": "paper PMC12170906", "target": "RNAP-SigA holoenzyme (Mycobacterium tuberculosis, UniProt P9WGZ1;P9WGY9;P9WGY7;P9WGI1 1-347;1-1178;1-1316;1-528)", "sequence (P9WGZ1 whole entry, chain 1 of 4)": "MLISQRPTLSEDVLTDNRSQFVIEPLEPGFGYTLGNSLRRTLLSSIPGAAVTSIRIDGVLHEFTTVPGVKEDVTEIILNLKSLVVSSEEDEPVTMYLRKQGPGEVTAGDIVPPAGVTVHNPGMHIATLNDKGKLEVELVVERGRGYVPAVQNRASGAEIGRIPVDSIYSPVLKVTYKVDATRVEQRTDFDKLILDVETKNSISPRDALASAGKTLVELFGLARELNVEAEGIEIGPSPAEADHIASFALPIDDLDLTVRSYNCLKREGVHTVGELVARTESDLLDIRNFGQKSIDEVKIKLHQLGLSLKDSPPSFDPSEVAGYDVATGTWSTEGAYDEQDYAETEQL", "sequence (P9WGY9 whole entry, chain 2 of 4)": "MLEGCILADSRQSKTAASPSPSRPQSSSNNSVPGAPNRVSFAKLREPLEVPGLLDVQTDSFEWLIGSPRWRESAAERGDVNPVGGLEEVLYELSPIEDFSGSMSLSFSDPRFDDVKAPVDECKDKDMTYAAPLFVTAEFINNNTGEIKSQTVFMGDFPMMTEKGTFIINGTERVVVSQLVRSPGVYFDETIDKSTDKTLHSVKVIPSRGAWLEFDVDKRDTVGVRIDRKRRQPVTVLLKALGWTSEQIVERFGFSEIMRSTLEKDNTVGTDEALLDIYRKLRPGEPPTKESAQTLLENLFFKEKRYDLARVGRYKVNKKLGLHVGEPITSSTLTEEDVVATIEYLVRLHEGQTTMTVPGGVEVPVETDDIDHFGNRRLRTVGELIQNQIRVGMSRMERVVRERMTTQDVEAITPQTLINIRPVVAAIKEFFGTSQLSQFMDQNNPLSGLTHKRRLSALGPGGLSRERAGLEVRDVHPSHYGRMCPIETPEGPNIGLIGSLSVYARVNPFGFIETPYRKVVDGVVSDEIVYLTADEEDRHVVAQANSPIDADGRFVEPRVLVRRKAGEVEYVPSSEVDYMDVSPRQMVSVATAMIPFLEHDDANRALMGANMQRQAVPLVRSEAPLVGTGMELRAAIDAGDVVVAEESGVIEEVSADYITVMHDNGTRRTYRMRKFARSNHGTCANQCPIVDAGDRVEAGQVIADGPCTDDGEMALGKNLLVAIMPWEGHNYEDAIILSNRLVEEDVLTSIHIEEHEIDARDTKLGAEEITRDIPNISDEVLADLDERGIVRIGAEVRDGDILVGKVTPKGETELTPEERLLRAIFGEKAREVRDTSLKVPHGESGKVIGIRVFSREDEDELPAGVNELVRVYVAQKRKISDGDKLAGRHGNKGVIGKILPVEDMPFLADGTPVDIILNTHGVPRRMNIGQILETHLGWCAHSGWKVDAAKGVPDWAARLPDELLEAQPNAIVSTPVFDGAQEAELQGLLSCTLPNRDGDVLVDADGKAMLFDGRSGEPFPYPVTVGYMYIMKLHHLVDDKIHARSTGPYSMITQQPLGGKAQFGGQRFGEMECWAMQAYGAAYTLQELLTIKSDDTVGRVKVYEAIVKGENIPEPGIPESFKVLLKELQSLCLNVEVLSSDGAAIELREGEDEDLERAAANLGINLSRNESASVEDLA", "sequence (P9WGY7 whole entry, chain 3 of 4)": "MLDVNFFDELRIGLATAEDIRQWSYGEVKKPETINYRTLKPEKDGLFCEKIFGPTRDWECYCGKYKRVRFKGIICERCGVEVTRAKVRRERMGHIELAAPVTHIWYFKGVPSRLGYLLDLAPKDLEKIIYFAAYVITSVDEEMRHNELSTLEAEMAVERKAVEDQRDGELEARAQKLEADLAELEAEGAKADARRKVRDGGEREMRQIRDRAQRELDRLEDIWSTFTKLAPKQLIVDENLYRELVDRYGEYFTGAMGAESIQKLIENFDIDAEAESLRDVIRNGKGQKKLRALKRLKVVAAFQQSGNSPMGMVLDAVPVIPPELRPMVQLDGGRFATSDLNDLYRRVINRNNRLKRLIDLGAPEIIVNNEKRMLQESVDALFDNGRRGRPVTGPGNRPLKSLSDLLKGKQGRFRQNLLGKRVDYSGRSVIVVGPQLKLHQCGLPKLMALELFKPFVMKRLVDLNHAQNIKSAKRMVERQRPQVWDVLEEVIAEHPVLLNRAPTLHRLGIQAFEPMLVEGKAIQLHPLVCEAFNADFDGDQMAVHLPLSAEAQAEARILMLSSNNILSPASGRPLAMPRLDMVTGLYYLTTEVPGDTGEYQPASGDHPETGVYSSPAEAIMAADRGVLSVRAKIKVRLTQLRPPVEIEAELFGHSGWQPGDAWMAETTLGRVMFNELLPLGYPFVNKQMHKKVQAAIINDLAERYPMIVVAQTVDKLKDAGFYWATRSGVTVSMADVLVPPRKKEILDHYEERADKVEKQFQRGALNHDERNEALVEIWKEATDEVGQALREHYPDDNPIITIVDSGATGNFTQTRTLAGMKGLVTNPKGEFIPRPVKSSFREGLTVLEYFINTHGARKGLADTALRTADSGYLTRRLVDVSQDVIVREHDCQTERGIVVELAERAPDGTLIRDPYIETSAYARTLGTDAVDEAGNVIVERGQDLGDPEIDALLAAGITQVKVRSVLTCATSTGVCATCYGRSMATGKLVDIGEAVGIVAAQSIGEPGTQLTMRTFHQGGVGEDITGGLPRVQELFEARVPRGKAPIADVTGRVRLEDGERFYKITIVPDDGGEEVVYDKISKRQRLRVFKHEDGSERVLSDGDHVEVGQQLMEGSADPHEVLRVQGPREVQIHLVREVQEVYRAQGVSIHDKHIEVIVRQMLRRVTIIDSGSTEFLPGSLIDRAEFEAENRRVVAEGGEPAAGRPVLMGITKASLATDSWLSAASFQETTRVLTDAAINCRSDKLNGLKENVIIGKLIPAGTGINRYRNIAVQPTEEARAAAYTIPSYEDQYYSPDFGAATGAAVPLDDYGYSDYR", "sequence (P9WGI1 whole entry, chain 4 of 4)": "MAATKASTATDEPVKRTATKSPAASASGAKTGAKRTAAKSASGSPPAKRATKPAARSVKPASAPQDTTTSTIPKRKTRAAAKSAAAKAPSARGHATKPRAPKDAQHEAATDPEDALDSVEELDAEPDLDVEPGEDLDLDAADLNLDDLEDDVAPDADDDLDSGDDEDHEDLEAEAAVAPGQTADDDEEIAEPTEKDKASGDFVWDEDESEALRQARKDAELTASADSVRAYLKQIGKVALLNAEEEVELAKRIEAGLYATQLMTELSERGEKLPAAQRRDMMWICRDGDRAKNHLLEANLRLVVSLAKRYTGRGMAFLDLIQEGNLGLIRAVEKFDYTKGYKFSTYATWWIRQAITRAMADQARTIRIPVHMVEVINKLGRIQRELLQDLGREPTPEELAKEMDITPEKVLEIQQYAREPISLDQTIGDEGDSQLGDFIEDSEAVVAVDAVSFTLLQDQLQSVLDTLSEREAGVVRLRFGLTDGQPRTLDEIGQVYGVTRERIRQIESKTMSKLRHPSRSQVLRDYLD", "assay": "EMSA; 100-200 nM RNAP, heparin", "conditions": "protein: recombinant; chain copies: 2;1;1;1; blunt", "data": [{"binder": "rrnAP3 promoter (dsDNA) DNA 1: CTATGGATGACCGAACCTGGTCTTGACTCCATTGCCGGATTTGTATTAGACTGGCAGGGTCGCCCCGAAGCGGGCGGAAACAAGCAAGCGTGTTGTTTGAGAACTC DNA 2: GAGTTCTCAAACAACACGCTTGCTTGTTTCCGCCCGCTTCGGGGCGACCCTGCCAGTCTAATACAAATCCGGCAATGGAGTCAAGACCAGGTTCGGTCATCCATAG", "values": [{"measurement": "binding result", "result": "binds"}]}]}
